Reference: patent KR20160003317A (dated 2016)

B1: SC06-429 (scFv)
scFv: QVQLVQSGAEVKNPGESLKISCKGSGYTFTSYWIGWVRQMPGKGLEWMGSIYPGDSDTRYSPSFQGQVTISVDKSISTAYLQWSSLKASDTAMYYCARQYRAGSTTRFDPWGQGTLVTVSSGTGGSGGTGSGTGGSTDVVMTQSPLSLPVTPGEPASISCRSSQSLRHRNGNNYLDWYLQKPGQSPQLLIYLGSNRASGVPDRFSGSGSGTDFTLKISRVEAEDVGIYYCMQALQTPLTFGGGTKVEIK
notes: single-chain phage antibody: the scFv stood on phage in the ELISA
B2: SC06-050 (scFv)
scFv: EVQLVESGPEVKKPGASVKVSCEASGYNLDNYGITWVRQAPGQGLEWLGWISAYNAKTEYGQRLQGRVTMTTDTATSTAYLELRSLRSDDTAVYYCARVLGYRGGWYDEGDAFDVWGQGTMVTVSSGTGGSGGTGSGTGGSTDIQLTQSPSFLSASVGDRVTITCRASQGIRSHLAWYQQKAGKAPKLLIYAASTLQSGVPSRFSGSGSGTEFTLTISSLQPDDFAAYYCQQLNTYPITFGQGTRLEIK
notes: single-chain phage antibody: the scFv stood on phage in the ELISA; also called SC05-050
B3: SC05-179 (scFv)
scFv: EVQLVESGGGLVKPGGSLGLSCAASGFFFSDYSMSWIRQAPGKGLEWLSNISGSGHSTKYAESMRGRITISRDNAKKSLSLQLNSLRAEDTAVYFCVRGGGYRMDVWGQGTTVTVSSGTGGSGGTGSGTGGSTQSALTQPRSVPGSPGQSVTISCTGTSSDVGGYNYVSWYQQHPGKAPKLMIYDVSKRPSGVPDRFSGSKSGNTASLTVSGLQAEDEADYYCSSYAGSNNFVVFGGGTKLTVL
notes: as for B1
B4: SC06-043 (scFv)
scFv: EVQLVESGAEVKKPGESLKISCKGSGYSFTSYWIGWVRQMPGKGLEWMGIIYPGDSDTRYSPSFQGQVTISADKSISTAYLQWSSLKASDTAMYYCARRYCSGGTCSDGFDIWGQGTMVTVSSGTGGSGGTGSGTGGSTQSALTQPPSASGSPGQSVTISCTGTSSDVGGYNYVSWYQQHPGKAPKLMIYEVSKRPSGVPDRFSGSKSGNTASLTVSGLQAEDEADYYCSSYAGSNNLVFGGGTKLTVL
notes: as for B1
B5: SC06-016 (scFv)
scFv: QVQLVQSGPEVKKPGASVTVSCKASGYSFSSYGISWVRQAPGQGLEWMGRIIPVGGNTLYSQMFQGRVTMTSDTSTSTVYLELSSLRSEDTAVYFCARDGGRWQFDYWGQGTLVTVSSGTGGSGGTGSGTGGSTDIQLTQSPSSVSASVGDRVTITCRASQGISNWLAWYQQKPGKAPELLIYAASSLQSGVPPRFSGSASGTDFTLTISSLQPEDFATYYCQQSKNFPYTFGQGTKVEIK
notes: as for B1
B6: SC06-049 (scFv)
scFv: QVQLVQSGAEVKKPGESLKISCKGSGYSFTSYWIGWVRQMPGKGLEWMGIIYPGDSDTRYSPSFQGQVTISADKSIGTAYLQWSSLKASDTAMYYCARLFRVRGGHFDSWGQGTLVTVSSGTGGSGGTGSGTGGSTQSALTQPASVSGSPGQSITISCTGTNSDVGGYNYVSWYQQHPGKAPKLLIYDVTNRPSGVSNRFSASKSGNTASLTISGLQAEDEADYYCSSFTSSSTRVFGGGTKLTVL
notes: as for B1
B7: SC06-432 (scFv)
scFv: QLQLQESGPGLVKPSQTLSLTCTVSGGSISSGGYYWSWIRQHPGKGLEWIGYIYYSGSTYYNPSLKSRVTISVDTSKNQFSLKLSSVTAADTAVYYCARERILDRMNDYWGQGTLVTVSSGTGGSGGTGSGTGGSTQSVVTQPPSVSGAPGQRVTISCTGSSSNIGAGYDVHWYQQLPGTAPKLLIYGNSNRPSGVPDRFSGSKSGTSASLAITGLQAEDEADYYCQSSDSSLNILFGGGTKLTVL
notes: as for B1
B8: SC05-187 (scFv)
scFv: EVQLVQSGAEVKKPGESLKISCKGSGYSFTKYWIGWVRQMPGKGLEWMGIIYPGDSDTRYSPSFQGQVTISADKSISTAYLQWSSLKASDTAMYYCARGSGIATGNSFDSWGQGTLVTVSSGTGGSGGTGSGTGGSTQTVVTQEPSLTVSPGGTVTLTCASSTGAVTSGYYPNWFQQKPGQAPRALIYSTSKKHSWTPARFSGSLLGGRAALTLSGAQPEDEADYYCLLSYGGARVFGGGTKLTVL
notes: as for B1

Each binder was assayed against T1, 송아지 혈청 알부민(BSA) (bovine (printed: 송아지 혈청 알부민), UniProt P02769 25-607) (assay: phage ELISA, 1% BSA coated, anti-M13-peroxidase, absorbance 492 nm).
T1 construct: also called bovine serum albumin
T1 sequence (P02769 25-607 limits assumed): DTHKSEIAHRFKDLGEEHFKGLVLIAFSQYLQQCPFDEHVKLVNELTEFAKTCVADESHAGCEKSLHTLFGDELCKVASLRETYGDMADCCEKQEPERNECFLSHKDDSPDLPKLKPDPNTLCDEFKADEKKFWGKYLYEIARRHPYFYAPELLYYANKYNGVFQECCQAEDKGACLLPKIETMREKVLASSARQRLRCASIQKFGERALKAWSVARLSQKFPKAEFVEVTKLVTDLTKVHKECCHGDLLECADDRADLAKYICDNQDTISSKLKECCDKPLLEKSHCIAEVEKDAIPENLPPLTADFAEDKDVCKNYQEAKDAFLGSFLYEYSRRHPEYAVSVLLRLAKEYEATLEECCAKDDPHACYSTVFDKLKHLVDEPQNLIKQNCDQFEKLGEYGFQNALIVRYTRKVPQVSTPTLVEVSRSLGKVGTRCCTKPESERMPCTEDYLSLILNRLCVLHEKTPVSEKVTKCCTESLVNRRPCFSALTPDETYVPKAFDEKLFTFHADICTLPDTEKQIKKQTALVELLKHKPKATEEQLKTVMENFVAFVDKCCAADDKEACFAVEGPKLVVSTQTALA

Question: Does B1 bind?
Answer: Result: no binding

Question: Does B2 bind?
Answer: Result: no binding

Question: Does B3 bind?
Answer: Result: no binding

Question: Does B4 bind?
Answer: Result: no binding

Question: Does B5 bind?
Answer: Result: no binding

Question: Does B6 bind?
Answer: Result: no binding

Question: Does B7 bind?
Answer: Result: no binding

Question: Does B8 bind?
Answer: Result: no binding
